Test [1] has as its target actin filaments (UniProt P68135).
Test [2] shares this target. The source holds these as a separate data set.
For test [3] the target is unchanged. The source holds these as a separate data set.

human β-cardiac myosin motor domain::GFP chimera, sequence (P12883 1-787, change not shown): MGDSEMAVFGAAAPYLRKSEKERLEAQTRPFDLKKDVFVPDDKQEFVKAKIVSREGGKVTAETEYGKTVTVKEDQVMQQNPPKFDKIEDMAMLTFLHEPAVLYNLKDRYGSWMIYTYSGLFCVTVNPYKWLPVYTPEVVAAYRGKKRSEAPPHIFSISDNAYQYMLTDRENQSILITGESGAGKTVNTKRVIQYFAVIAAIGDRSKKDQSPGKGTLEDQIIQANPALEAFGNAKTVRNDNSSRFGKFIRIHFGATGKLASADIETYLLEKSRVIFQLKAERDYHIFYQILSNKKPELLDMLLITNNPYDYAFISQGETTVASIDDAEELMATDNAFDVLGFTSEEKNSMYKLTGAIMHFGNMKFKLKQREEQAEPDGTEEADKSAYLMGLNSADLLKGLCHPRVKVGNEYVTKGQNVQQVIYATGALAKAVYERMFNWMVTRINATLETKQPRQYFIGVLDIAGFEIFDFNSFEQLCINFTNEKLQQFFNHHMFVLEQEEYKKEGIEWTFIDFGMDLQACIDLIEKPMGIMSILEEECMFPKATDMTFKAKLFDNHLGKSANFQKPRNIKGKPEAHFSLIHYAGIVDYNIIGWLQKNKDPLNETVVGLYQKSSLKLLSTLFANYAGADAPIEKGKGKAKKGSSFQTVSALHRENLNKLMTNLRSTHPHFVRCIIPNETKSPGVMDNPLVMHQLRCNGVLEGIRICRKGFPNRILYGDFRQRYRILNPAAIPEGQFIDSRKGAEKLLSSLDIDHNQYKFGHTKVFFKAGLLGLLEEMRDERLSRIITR
human β-cardiac heavy meromyosin, sequence (P12883 1-1138): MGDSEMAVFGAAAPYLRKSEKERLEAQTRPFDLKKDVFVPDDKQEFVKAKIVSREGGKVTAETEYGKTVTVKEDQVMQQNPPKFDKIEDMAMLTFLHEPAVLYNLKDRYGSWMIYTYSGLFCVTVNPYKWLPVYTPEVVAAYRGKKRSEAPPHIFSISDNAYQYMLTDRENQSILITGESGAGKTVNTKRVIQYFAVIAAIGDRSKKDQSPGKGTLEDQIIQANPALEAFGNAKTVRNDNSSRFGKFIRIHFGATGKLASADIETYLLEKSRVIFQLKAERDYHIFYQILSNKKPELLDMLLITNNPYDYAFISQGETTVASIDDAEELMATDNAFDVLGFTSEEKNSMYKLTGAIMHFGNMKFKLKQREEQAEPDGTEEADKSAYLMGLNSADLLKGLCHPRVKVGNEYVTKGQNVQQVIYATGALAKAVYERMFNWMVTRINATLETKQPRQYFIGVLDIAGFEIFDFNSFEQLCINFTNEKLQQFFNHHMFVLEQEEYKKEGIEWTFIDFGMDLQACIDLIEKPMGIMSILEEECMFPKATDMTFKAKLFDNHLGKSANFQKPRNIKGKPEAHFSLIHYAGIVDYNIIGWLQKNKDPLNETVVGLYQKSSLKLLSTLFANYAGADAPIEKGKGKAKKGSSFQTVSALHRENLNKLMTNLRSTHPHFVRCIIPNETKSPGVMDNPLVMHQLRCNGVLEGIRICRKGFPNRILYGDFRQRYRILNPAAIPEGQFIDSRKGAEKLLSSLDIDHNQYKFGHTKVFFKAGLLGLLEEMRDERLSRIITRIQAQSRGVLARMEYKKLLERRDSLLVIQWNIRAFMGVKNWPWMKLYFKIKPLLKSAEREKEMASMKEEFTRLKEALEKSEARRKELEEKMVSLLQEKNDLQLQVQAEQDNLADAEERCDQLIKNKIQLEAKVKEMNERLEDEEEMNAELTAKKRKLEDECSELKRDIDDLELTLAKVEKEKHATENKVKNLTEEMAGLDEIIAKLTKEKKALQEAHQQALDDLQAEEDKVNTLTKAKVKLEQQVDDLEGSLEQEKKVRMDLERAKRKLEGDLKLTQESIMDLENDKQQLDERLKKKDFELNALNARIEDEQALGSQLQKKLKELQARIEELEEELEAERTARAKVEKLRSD

Take “human β-cardiac heavy meromyosin (from UniProt P12883 1-1138) (domain or fragment)”: in the test with actin filaments [1], the actin filament velocity in the in vitro motility assay (cHMM bound directly to nitrocellulose, 32 °C), without OM and with OM titrated from 0.42 to 12.5 μM; slowed 15–20-fold by OM is 0.8 μm s^−1.
With “human β-cardiac myosin motor domain::GFP chimera (from UniProt P12883 1-787) (domain or fragment)”, the sliding actin filament velocity in the in vitro motility assay (cMD held by anti-GFP, 32 °C), without OM and with OM titrated from 0.42 to 12.5 μM; slowed 15–20-fold by OM in the test with actin filaments [2] came to 0.8 μm s^−1. Further, in the test with actin filaments [3], the K ATPase for actin activation of the steady-state ATPase of the cMD (0.06 μM cMD, 0–100 μM actin), with 100 μM OM worked out at 5.4 µM and the K ATPase for actin activation of the steady-state ATPase of the cMD (0.06 μM cMD, 0–100 μM actin), without OM turned out to be 22.5 µM.

These data come from publication PMC4918383.
